Legend:
[1] = molecular target: AcrIIC2Nme (purified, pET28a-Sumo construct) (not stated (suffix Nme; its cognate Cas9 is from N. meningitidis)); test: crystal structure; Nme1Cas9 and AcrIIC2Nme mixed 1:10, complex purified by gel filtration; hanging drop, 16 °C; Nme1Cas9 digested during crystallization; 2.6 Å
[2] = molecular target: Nme1Cas9 (purified, full length) (N. meningitidis); test: ITC; 100 μM AcrIIC2Nme titrated into 10 μM Nme1Cas9; 20 °C; 300 mM NaCl, 20 mM Tris pH 7.5; One Set of Sites model
[3] = molecular target: Nme1Cas9 (purified, full length) (N. meningitidis)
[4] = molecular target: AcrIIC2Nme (purified, pHAT4 construct with N-terminal 6-His tag) (not stated (suffix Nme; its cognate Cas9 is from N. meningitidis)); test: crystal structure; AcrIIC2Nme alone; Se-SAD; 2.5 Å

| Substance | stoichiometry N [1] | Kd [2] [nM] | in vitro DNA cleavage by Nme1Cas9; sgRNA and AcrIIC2Nme added simultaneously; excess of AcrIIC2Nme needed to block cleavage [3] [fold excess] | stoichiometry N [4] |
| --- | --- | --- | --- | --- |
| AcrIIC2Nme (purified, pET28a-Sumo construct) (natural protein) | 2 | 200 | > 10 | – |
| AcrIIC2Nme (purified, pHAT4 construct with N-terminal 6-His tag) (natural protein) | – | – | – | 2 |

— article PMC6594998
